In assay [1] the target is T1, human PCSK9 (self-cleaved, mature, secreted PCSK9 comprising amino acids 31 to 692 of SEQ ID NO: 2) (human, UniProt Q8NBP7 31-692, biotinylated in the ELISAs).
T1 construct: Limits 31-692 are stated for the immunogen; the assays only say human PCSK9; also called huPCSK9; rhu PCSK9
The assay is described as follows: solution equilibrium, BIAcore, pH 7.4. A general note: In SPR one partner is held on a chip, and binding of the other changes the refractive index at the surface.

Assay [2] deals with T1, human PCSK9 (self-cleaved, mature, …). Put plainly: solution equilibrium, BIAcore, pH 5.5.
For assay [3] the target is unchanged. Put plainly: SPR pH 7.4.
Assay [4] has the same target. Put plainly: solution equilibrium, BIAcore.
Assay [5] has the same target. Put plainly: SPR pH 7.4. The source holds these as a separate data set.
For assay [6] the target is unchanged. Put plainly: SPR pH 7.4. The source holds these as a separate data set.
Assay [7] has the same target. Put plainly: SPR pH 5.5.

Where two headings read alike, the source gives them in different places.

B1: SS-15497 (antibody, V domains shown)
VH: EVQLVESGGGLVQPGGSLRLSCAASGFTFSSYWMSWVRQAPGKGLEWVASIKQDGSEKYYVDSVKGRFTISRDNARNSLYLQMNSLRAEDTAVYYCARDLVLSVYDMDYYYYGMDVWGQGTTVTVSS
VL: DIVMTQSPLSLPVTPGEPASISCRSSQSLLHSGNGYNYLDWYLQKPGQSPQLLIYLGLNRASGVPDRFSGSGSGTDFTLKISRVEAEDVGVYYCMQAIHTPLTFGGGTKVEIKR
notes: HC VH6 (M103S, I107M), LC G33 insertion, S57L, L97I, Q98H
As to B1, the Kd (in general, the free concentration of one partner at which half of the binding sites on the other are occupied at equilibrium, for simple one-to-one binding) in assay [1] came to 0.084 nM; in assay [2], 0.68 nM; in assay [3], 0.249 nM; in assay [5], 0.249 nM. Also, the koff in assay [3] and in assay [5] was 9.47e-05 s⁻¹ throughout. Moreover, the association rate constant (kon) in assay [3] and in assay [5] was 381000 M⁻¹ s⁻¹ throughout. For the same molecule, the “KD ratio pH 5.5/pH 7.4” value in assay [4] came out at 8.1.

B2: SS-15519 (antibody, V domains shown)
VH: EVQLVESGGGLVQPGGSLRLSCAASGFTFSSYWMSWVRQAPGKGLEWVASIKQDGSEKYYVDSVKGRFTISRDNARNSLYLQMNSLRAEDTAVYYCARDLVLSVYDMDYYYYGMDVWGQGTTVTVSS
VL: DIVMTQSPLSLPVTPGEPASISCRSSQSLLHSGNGYNYLDWYLQKPGQSPQLLIYLGWNRASGVPDRFSGSGSGTDFTLKISRVEAEDVGVYYCMQAIHTPLTFGGGTKVEIKR
notes: HC VH6, LC G33, S57W, L97I, Q98H
As to B2, the Kd in assay [1] worked out at 0.083 nM; in assay [2], 0.86 nM. The “KD ratio pH 5.5/pH 7.4” value in assay [4] was determined as 10.4.

B3: SS-14835 (antibody, V domains shown)
VH: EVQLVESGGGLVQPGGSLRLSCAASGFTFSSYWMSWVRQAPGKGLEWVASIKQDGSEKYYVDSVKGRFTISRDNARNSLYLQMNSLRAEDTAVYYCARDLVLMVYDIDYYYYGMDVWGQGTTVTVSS
VL: DIVMTQSPLSLPVTPGEPASISCRSSQSLLHSGNGYNYLDWYLQKPGQSPQLLIYLGLNRASGVPDRFSGSGSGTDFTLKISRVEAEDVGVYYCMQAIHTPLTFGGGTKVEIKR
notes: HC WT, LC G33 insertion, S57L/L97I, Q98H
Turning to B3, the Kd is 0.35 nM in assay [1], 3.1 nM in assay [2], 0.534 nM in assay [3] and 0.534 nM in assay [5]. The koff in assay [3] and in assay [5] was 0.000163 s⁻¹ throughout. Also, the kon in assay [3] and in assay [5] was 306000 M⁻¹ s⁻¹ in each case. Also, the “KD ratio pH 5.5/pH 7.4” value in assay [4] was 8.9.

B4: SS-15520 (antibody, V domains shown)
VH: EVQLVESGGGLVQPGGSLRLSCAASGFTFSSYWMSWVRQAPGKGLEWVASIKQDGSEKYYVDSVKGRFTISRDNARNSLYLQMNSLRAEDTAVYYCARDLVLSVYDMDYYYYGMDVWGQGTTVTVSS
VL: DIVMTQSPLSLPVTPGEPASISCRSSQSLLHSGNGYNYLDWYLQKPGQSPQLLIYLGQNRASGVPDRFSGSGSGTDFTLKISRVEAEDVGVYYCMQAIHTPLTFGGGTKVEIKR
notes: HC VH6, LC G33, S57Q, L97I, Q98H
In the case of B4, the results for the dissociation constant Kd in assay [1] and in assay [2] were 0.17 nM and 1.2 nM, respectively. For the same molecule, the “KD ratio pH 5.5/pH 7.4” value in assay [4] was 7.1.

B5: SS-15196 (antibody, V domains shown)
VH: not shown
VL: DIVMTQSPLSLPVTPGEPASISCRSSQSLLHSGNGYNYLDWYLQKPGQSPQLLIYLGLNRASGVPDRFSGSGSGTDFTLKISRVEAEDVGVYYCMQAIHTPLTFGGGTKVEIKR
notes: HC I107M, LC G33 insertion, S57L, L97I, Q98H
Regarding B5, the equilibrium dissociation constant (Kd) in assay [1] was found to be 0.056 nM; in assay [2], 0.57 nM; in assay [3] it was 0.134 nM; in assay [5], 0.134 nM. Also, the koff in assay [3] and in assay [5] was 5.06e-05 s⁻¹ throughout. In addition, the kon in assay [3] and in assay [5] was 377000 M⁻¹ s⁻¹ each time. The “KD ratio pH 5.5/pH 7.4” value in assay [4] was determined as 10.2.

B6: SS-15518 (antibody, V domains shown)
VH: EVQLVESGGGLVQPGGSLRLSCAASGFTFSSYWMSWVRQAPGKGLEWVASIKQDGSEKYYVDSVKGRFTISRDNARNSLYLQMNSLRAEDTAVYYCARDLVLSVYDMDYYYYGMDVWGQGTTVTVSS
VL: DIVMTQSPLSLPVTPGEPASISCRSSQSLLHSGNGYNYLDWYLQKPGQSPQLLIYLGNNRASGVPDRFSGSGSGTDFTLKISRVEAEDVGVYYCMQAIHTPLTFGGGTKVEIKR
notes: HC VH6, LC G33, S57N, L97I, Q98H
Take B6: the dissociation constant (Kd) in assay [1] worked out at 0.14 nM; in assay [2] it was 1.2 nM. Besides, in assay [4], the “KD ratio pH 5.5/pH 7.4” value was determined as 8.6.

B7: SS-15195 (antibody, V domains shown)
VH: not shown
VL: DIVMTQSPLSLPVTPGEPASISCRSSQSLLHSNGHNYLDWYLQKPGQSPQLLIYLGLNRAHGVPDRFSGSGSGTDFTLKISRVEAEDVGVYYCMQALQTPLTFGGGTKVEIKR
notes: HC I107M, LC Y35H, S57L, S61H
As for B7, the Kd is 0.035 nM in assay [1], 0.45 nM in assay [2], 0.0611 nM in assay [3] and 0.0611 nM in assay [5]. The koff in assay [3] and in assay [5] was 1.98e-05 s⁻¹ each time. Moreover, the association rate constant (kon) in assay [3] and in assay [5] was 325000 M⁻¹ s⁻¹ in each case. Moreover, the “KD ratio pH 5.5/pH 7.4” value in assay [4] was 12.9.

B8: SS-15132 (antibody, V domains shown)
VH: EVQLVESGGGLVKPGGSLRLSCAASGFTFSSYSMNWVRQAPGKGLEWVSSISSSSSYHSYADSVKGRFTISRDNAKNSLYLQMNSLRAEDTAVYFCARDYDFHSAHYDAFDVWGQGTMVTVSS
VL: ESVLTQPPSVSGAPGQRVTISCTGSSSNIGAGYDVHWYQQLPGTAPKLLISGNSNRPSGVPDRFSGSKSGTSASLAITGLQAEDEADYYCQSYDSSLSGSVFGGGTKLTVLG
notes: 31H4 His variant: HC 68(58), 132(106), parental(113H)
Take B8: in assay [6], the dissociation constant Kd came out at 0.273 nM, the dissociation rate constant (koff) (usually the rate constant with which the complex falls apart) is 0.000338 s⁻¹ and the association rate constant (kon) (usually the rate constant with which the complex forms) came to 1.24e+06 M⁻¹ s⁻¹. The “estimated complex half life pH 5.5” value in assay [7] is 20 s.

B9: SS-15121 (antibody, V domains shown)
VH: EVQLVESGGGLVKPGGSLRLSCAASGFTFSSYSMNWVRQAPGKGLEWVSSISSHSSYISYADSVKGRFTISRDNAKNSLYLQMNSLRAEDTAVYFCARDYDFHSAHYDAFDVWGQGTMVTVSS
VL: ESVLTQPPSVSGAPGQRVTISCTGSSSNIGAGYDVHWYQQLPGTAPKLLISGNSNRPSGVPDRFSGSKSGTSASLAITGLQAEDEADYYCQSYDSSLSGSVFGGGTKLTVLG
notes: 31H4 His variant: HC 61(54), 132(106), parental(113H); parental LC
For B9, in assay [6], binding was put at a Kd of 0.383 nM, the koff came out at 0.000563 s⁻¹ and the kon was determined as 1.47e+06 M⁻¹ s⁻¹. Further, the “estimated complex half life pH 5.5” value in assay [7] is 20 s.

B10: SS-15124 (antibody, V domains shown)
VH: EVQLVESGGGLVKPGGSLRLSCAASGFTFSSYSMNWVRQAPGKGLEWVSSISSSSHYISHADSVKGRFTISRDNAKNSLYLQMNSLRAEDTAVYFCARDYDFHSAYYDAFDVWGQGTMVTVSS
VL: ESVLTQPPSVSGAPGQRVTISCTGSSSNIGAGYDVHWYQQLPGTAPKLLISGNSNRPSGVPDRFSGSKSGTSASLAITGLQAEDEADYYCQSYDSSLSGSVFGGGTKLTVLG
notes: 31H4 His variant: HC 66(56), 70(60), parental(113H)
Take B10: in assay [6], binding was characterised by a dissociation constant (Kd) of 0.327 nM, the off-rate constant (koff) was determined as 0.000525 s⁻¹ and the kon was 1.6e+06 M⁻¹ s⁻¹. Moreover, the “estimated complex half life pH 5.5” value in assay [7] was 100 s.

B11: SS-15087 (antibody, V domains shown)
VH: EVQLVESGGGLVKPGGSLRLSCAASGFTFSSYSMNWVRQAPGKGLEWVSSISSSSSYISYADSVKGRFTISRDNAKNSLYLQMNSLRAEDTAVYFCARDYDFHSAHYDAFDVWGQGTMVTVSS
VL: ESVLTQPPSVSGAPGQRVTISCTGSSSNIGAGYDVHWYQQLPGTAPKLLISGNSNRPSGVPDRFSGSKSGTSASLAITGLQAEDEADYYCQSYDSSLHGSVFGGGTKLTVLG
In assay [6], B11 registered a Kd of 0.229 nM, a koff of 0.000288 s⁻¹ and a kon of 1.26e+06 M⁻¹ s⁻¹. Further, in assay [7], the “estimated complex half life pH 5.5” value was 100 s.

B12: SS-15114 (antibody, V domains shown)
VH: EVQLVESGGGLVKPGGSLRLSCAASGFTFSSHSMNWVRQAPGKGLEWVSSISSSSSYISYADSVKGRFTISRDNAKNSLYLQMNSLRAEDTAVYFCARDYDFHSAHYDAFDVWGQGTMVTVSS
VL: ESVLTQPPSVSGAPGQRVTISCTGSSSNIGAGYDVHWYQQLPGTAPKLLISGNSNRPSGVPDRFSGSKSGTSASLAITGLQAEDEADYYCQSYDSSLSGSVFGGGTKLTVLG
notes: 31H4 His variant: HC 39(32), 132(106), parental(113H)
As to B12, in assay [6], the affinity, expressed as Kd, was 0.271 nM; the dissociation rate constant (koff) is 0.00015 s⁻¹; the association rate constant (kon) worked out at 555000 M⁻¹ s⁻¹. Further, the “estimated complex half life pH 5.5” value in assay [7] is 100 s.

B13: SS-15136 (antibody, V domains shown)
VH: EVQLVESGGGLVKPGGSLRLSCAASGFTFSSYSMNWVRQAPGKGLEWVSSISSSSSYISHADSVKGRFTISRDNAKNSLYLQMNSLRAEDTAVYFCARDYDFHSAHYDAFDVWGQGTMVTVSS
VL: ESVLTQPPSVSGAPGQRVTISCTGSSSNIGAGYDVHWYQQLPGTAPKLLISGNSNRPSGVPDRFSGSKSGTSASLAITGLQAEDEADYYCQSYDSSLSGSVFGGGTKLTVLG
notes: 31H4 His variant: HC 70(60), 132(106), parental(113H)
In assay [6], B13 registered a dissociation constant Kd of 0.241 nM, a koff of 0.000298 s⁻¹ and a kon of 1.23e+06 M⁻¹ s⁻¹. Besides, in assay [7], the “estimated complex half life pH 5.5” value is 100 s.

B14: SS-15065 (antibody, V domains shown)
VH: EVQLVESGGGLVKPGGSLRLSCAASGFTFSSYSMNWVRQAPGKGLEWVSSISSSSSYISYADSVKGRFTISRDNAKNSLYLQMNSLRAEDTAVYFCARDYDFHSAHYDAFDVWGQGTMVTVSS
VL: ESVLTQPPSVSGAPGQRVTISCTGSSSNIGAGHDVHWYQQLPGTAPKLLISGNSNRPSGVPDRFSGSKSGTSASLAITGLQAEDEADYYCQSYDSSLSGSVFGGGTKLTVLG
notes: 31H4 His variant: LC 39(32), HC 132(106), parental(113H)
Turning to B14, in assay [6], the Kd was determined as 0.274 nM, the koff came to 0.000337 s⁻¹ and the kon is 1.23e+06 M⁻¹ s⁻¹. In addition, in assay [7], the “estimated complex half life pH 5.5” value was 100 s.

B15: SS-15126 (antibody, V domains shown)
VH: EVQLVESGGGLVKPGGSLRLSCAASGFTFSSYSMNWVRQAPGKGLEWVSSISSSSHYISYADHVKGRFTISRDNAKNSLYLQMNSLRAEDTAVYFCARDYDFHSAYYDAFDVWGQGTMVTVSS
VL: ESVLTQPPSVSGAPGQRVTISCTGSSSNIGAGYDVHWYQQLPGTAPKLLISGNSNRPSGVPDRFSGSKSGTSASLAITGLQAEDEADYYCQSYDSSLSGSVFGGGTKLTVLG
notes: 31H4 His variant: HC 66(56), 73(63), parental(113H)
In assay [6], B15 displayed a dissociation constant Kd of 0.257 nM, a koff of 0.000385 s⁻¹ and a kon of 1.5e+06 M⁻¹ s⁻¹. Also, the “estimated complex half life pH 5.5” value in assay [7] was 100 s.

The record behind these values is patent US20160032014A1 (Amgen, published 2016).
